Reference: article doi:10.1101/2023.05.26.542392

Biological target: Full-length SARS-Cov-2-Nucleocapsid (FLN), WT (SARS-CoV-2)
Test: AUC

Full-length SARS-Cov-2-Nucleocapsid (FLN), WT (natural protein)
stoichiometry N: 2
